# According to patent US20200377596A1 (AMPHIVENA THERAPEUTICS, published 2020):
# Molecular target: CD33 (UniProt P20138 18-364, limits assumed)
# Test: cell-based or functional assay
# Chain of CD33 (P20138 18-364 limits assumed): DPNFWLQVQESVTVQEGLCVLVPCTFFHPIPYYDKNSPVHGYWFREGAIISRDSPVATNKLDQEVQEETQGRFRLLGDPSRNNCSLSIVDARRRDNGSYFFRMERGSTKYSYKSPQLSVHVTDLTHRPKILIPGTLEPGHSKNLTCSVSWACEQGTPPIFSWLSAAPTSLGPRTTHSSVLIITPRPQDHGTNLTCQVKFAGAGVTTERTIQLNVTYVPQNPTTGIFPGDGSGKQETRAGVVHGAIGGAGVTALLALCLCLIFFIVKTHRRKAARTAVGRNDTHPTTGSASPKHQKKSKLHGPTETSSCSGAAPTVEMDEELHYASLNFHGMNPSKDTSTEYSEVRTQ
binder,measurement,value
AMV564 (bispecific antibody) DIQMTQSPSSLSASVGDRVTITCRSSTGAVTTSNYANWVQQKPGKAPKALIGGTNKRAPGVPSRFSGSLIGDKATLTISSLQPEDFATYYCALWYSNLWVFGQGTKVEIKGGSGGSQVQLVQSGAEVKKPGASVKVSCKASGYTFTSYDINWVRQAPGQGLEWMGWMNPNSGNTGFAQKFQGRVTMTRDTSTSTVYMELSSLRSEDTAVYYCARDRANTDYSLGMDVWGQGTLVTVSSGGSGQSVLTQPPSASGTPGQRVTISCSGSRSNIGSNTVNWYQQLPGTAPKLLIYGNNQRPSGVPDRFSGSKSGTSASLAISGLQSEDEADYYCATWDDSLIGWVFGGGTKLTVLGGSGGSEVQLVESGGGLVQPGGSLRLSCAASGFTFSTYAMNWVRQAPGKGLEWVGRIRSKYNNYATYYADSVKDRFTISRDDSKNSLYLQMNSLKTEDTAVYYCARHGNFGNSYVSYFAYWGQGTLVTVSS,proliferation of CD4+ and CD8+ T cells,> 2 fold
